According to article PMC9482650, “Quantitative fragmentomics allow affinity mapping of interactomes” (Nature Communications, 2022):

T1: SNTG2, Q9NY99
T1 sequence (Q9NY99 68-166, limits assumed, looked up): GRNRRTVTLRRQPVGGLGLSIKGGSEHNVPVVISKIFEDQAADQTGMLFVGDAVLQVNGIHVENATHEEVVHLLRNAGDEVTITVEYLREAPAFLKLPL

T2: PARD3B_1, Q8TEW8
T2 sequence (Q8TEW8 196-299, limits assumed, looked up): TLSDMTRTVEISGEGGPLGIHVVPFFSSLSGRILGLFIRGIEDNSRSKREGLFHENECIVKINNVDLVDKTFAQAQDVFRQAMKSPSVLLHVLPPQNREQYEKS

T3: NHERF3_1, Q5T2W1
T3 sequence (Q5T2W1 4-100, limits assumed, looked up): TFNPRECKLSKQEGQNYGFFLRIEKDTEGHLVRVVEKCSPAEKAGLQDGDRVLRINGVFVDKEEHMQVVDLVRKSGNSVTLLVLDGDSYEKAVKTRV

T4: SNTG1, Q9NSN8
T4 sequence (Q9NSN8 52-150, limits assumed, looked up): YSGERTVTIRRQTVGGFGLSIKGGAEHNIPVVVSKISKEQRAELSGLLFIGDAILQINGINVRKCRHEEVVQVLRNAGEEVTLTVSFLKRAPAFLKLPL

T5: MPP6, Q9NZW5
T5 sequence (Q9NZW5 125-219, limits assumed, looked up): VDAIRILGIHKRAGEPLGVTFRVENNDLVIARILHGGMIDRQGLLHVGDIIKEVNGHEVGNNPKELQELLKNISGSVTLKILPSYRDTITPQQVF

T6: LRRC7, Q96NW7
T6 sequence (Q96NW7 1440-1537, limits assumed, looked up): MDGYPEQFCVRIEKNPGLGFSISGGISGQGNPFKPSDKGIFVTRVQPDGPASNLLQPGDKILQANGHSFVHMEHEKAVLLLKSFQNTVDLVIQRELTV

T7: TIAM2, Q8IVF5
T7 sequence (Q8IVF5 885-986, limits assumed, looked up): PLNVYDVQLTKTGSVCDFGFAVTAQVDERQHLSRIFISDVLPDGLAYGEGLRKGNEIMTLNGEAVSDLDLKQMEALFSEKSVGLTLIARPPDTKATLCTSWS

T8: NHERF3_3, Q5T2W1
T8 sequence (Q5T2W1 238-333, limits assumed, looked up): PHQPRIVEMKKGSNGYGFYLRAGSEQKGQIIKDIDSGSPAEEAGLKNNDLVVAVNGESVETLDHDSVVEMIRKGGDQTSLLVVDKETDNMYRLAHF


Experiments:
Assay in all cases: holdup assay
Design in all cases: key: below the threshold = too weak to quantify, mostly under pKd 3.1 to 4
Settings in all cases: plain residues with an end cap or a label only (N-terminal biotin on a linker: ado-ado)
[1] = target: SCRIB_3, Q14160
[2] = target: GRIP2_6, Q9C0E4
[3] = target: DLG4_2, P78352
[4] = target: LIMK2, P53671
[5] = target: PARD3_3, Q8TEW0
[6] = target: PICK1, Q9NRD5
[7] = target: IL16_1, Q14005
[8] = target: T1, SNTG2, Q9NY99
[9] = target: SCRIB_1, Q14160
[10] = target: T2, PARD3B_1, Q8TEW8
[11] = target: MAST2, Q6P0Q8
[12] = target: GRASP, Q7Z6J2
[13] = target: DLG4_3, P78352
[14] = target: T3, NHERF3_1, Q5T2W1
[15] = target: DLG1_3, Q12959
[16] = target: T4, SNTG1, Q9NSN8
[17] = target: LAP2, Q96RT1
[18] = target: Inadl_3, Q8NI35
[19] = target: Inadl_1, Q8NI35
[20] = target: T5, MPP6, Q9NZW5
[21] = target: ARHGEF12, Q9NZN5-2
[22] = target: T6, LRRC7, Q96NW7
[23] = target: DLG1_2, Q12959
[24] = target: NHERF4_4, Q86UT5
[25] = target: TJP1_3, Q07157
[26] = target: IL16_4, Q14005
[27] = target: PTPN3, P26045
[28] = target: T7, TIAM2, Q8IVF5
[29] = target: LDB3, O75112
[30] = target: T8, NHERF3_3, Q5T2W1

IL16_1, Q14005, sequence (Q14005 210-306): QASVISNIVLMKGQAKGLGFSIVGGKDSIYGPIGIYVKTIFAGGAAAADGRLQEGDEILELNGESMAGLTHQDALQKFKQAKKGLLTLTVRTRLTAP
GRIP2_6, Q9C0E4, sequence (Q9C0E4 648-740): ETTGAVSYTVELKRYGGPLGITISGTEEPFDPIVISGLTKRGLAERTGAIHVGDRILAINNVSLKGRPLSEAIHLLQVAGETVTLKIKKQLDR
NHERF4_4, Q86UT5, sequence (Q86UT5 464-550): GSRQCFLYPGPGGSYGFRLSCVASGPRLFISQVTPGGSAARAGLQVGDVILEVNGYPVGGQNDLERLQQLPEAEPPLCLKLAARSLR
IL16_4, Q14005, sequence (Q14005 1229-1329): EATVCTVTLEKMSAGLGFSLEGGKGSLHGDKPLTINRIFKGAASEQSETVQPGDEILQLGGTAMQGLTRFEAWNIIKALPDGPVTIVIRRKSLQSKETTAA
ARHGEF12, Q9NZN5-2, sequence (Q9NZN5 other isoform, or with tags, fused parts or gaps): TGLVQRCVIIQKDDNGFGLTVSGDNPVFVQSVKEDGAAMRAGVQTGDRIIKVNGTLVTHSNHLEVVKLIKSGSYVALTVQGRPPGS
SCRIB_3, Q14160, sequence (Q14160 999-1103): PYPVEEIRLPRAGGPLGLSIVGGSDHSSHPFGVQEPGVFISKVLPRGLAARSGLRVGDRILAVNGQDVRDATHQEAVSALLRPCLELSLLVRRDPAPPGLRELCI
PICK1, Q9NRD5, sequence (Q9NRD5 17-115): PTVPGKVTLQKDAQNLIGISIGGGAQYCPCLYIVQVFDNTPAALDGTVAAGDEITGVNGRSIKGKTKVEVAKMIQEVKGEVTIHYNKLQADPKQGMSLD
DLG1_2, Q12959, sequence (Q12959 314-412): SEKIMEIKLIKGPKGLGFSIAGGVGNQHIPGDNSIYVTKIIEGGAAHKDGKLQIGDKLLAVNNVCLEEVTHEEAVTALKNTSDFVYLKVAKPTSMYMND
LAP2, Q96RT1, sequence (Q96RT1 other isoform, or with tags, fused parts or gaps): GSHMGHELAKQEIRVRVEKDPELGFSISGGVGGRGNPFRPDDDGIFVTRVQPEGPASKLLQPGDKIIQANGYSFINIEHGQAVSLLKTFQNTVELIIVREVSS
Inadl_1, Q8NI35, sequence (Q8NI35 113-229): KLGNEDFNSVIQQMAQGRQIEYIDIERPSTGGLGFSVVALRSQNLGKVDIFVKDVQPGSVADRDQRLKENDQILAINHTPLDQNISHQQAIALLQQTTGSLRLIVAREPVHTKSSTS
LDB3, O75112, sequence (O75112 1-94): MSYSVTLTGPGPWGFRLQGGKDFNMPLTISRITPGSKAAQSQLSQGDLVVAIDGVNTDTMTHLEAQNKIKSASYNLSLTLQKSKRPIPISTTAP
SCRIB_1, Q14160, sequence (Q14160 718-814): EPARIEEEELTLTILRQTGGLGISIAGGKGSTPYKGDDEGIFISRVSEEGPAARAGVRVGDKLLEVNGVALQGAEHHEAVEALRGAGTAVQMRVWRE
PTPN3, P26045, sequence (P26045 505-587): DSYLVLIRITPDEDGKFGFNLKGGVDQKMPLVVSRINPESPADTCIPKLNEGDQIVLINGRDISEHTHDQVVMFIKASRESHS
TJP1_3, Q07157, sequence (Q07157 416-512): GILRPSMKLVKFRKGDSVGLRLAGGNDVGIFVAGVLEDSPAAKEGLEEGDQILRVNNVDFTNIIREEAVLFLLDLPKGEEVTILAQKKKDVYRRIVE
DLG1_3, Q12959, sequence (Q12959 457-571): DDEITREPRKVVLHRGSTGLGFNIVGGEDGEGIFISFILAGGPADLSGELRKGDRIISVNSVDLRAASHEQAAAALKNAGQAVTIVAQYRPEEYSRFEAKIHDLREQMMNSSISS
LIMK2, P53671, sequence (P53671 143-248): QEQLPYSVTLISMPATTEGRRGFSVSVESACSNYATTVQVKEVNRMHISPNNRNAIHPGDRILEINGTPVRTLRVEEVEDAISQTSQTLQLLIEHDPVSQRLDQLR
DLG4_3, P78352, sequence (P78352 306-403): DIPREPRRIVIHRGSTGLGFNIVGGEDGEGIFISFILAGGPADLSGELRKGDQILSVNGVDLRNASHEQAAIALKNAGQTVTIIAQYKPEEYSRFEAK
MAST2, Q6P0Q8, sequence (Q6P0Q8 1099-1202): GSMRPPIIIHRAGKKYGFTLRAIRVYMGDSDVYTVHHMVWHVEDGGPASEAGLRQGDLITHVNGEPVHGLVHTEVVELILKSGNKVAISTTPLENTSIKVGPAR
DLG4_2, P78352, sequence (P78352 155-259): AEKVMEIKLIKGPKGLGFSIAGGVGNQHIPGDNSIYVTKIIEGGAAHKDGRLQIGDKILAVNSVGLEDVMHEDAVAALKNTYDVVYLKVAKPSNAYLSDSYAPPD
GRASP, Q7Z6J2, sequence (Q7Z6J2 96-193): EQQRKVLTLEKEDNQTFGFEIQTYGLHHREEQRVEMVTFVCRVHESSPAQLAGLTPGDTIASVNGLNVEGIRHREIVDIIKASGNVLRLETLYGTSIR
PARD3_3, Q8TEW0, sequence (Q8TEW0 582-685): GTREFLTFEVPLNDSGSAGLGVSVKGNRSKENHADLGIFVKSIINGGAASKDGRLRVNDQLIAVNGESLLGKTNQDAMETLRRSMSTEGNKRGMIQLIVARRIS
Inadl_3, Q8NI35, sequence (Q8NI35 359-469): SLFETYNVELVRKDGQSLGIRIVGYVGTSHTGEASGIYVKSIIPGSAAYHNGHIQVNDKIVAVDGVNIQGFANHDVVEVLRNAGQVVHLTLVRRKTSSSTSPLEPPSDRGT

pKd [1] | pKd [2] | pKd [3] | pKd [4] | pKd [5] | pKd [6] | pKd [7] | pKd [8] | pKd [9] | pKd [10] | pKd [11] | pKd [12] | pKd [13] | pKd [14] | pKd [15] | pKd [16] | pKd [17] | pKd [18] | pKd [19] | pKd [20] | Binder | also measured
below the threshold | below the threshold | below the threshold | below the threshold | below the threshold | below the threshold | below the threshold | below the threshold | below the threshold | below the threshold | 3.84 | below the threshold | below the threshold | 4.08 | below the threshold | below the threshold | below the threshold | below the threshold | below the threshold | 3.88 | PAPSSGKDYV [CLDN1, O95832] | pKd [21]: below the threshold; pKd [22]: below the threshold; pKd [23]: below the threshold; pKd [24]: below the threshold; pKd [25]: below the threshold; pKd [26]: below the threshold; pKd [27]: below the threshold; pKd [28]: below the threshold; pKd [29]: below the threshold; pKd [30]: below the threshold
5.02 | below the threshold | 4.4 | below the threshold | 3.85 | below the threshold | 4.17 | 5.05 | 4.54 | below the threshold | 5.5 | 3.9 | 4.2 | 4.47 | 4.64 | 5.53 | 4.93 | 3.72 | below the threshold | below the threshold | EVEEFPETSV [TRPV3, Q8NET8] | pKd [21]: 3.94; pKd [22]: 4.08; pKd [23]: 4.51; pKd [24]: below the threshold; pKd [25]: 3.5; pKd [26]: below the threshold; pKd [27]: 4.95; pKd [28]: below the threshold; pKd [29]: below the threshold; pKd [30]: below the threshold
4.19 | below the threshold | 3.48 | below the threshold | 3.68 | 4.17 | 4.16 | 3.66 | 3.77 | 4.47 | 5.53 | 4.73 | below the threshold | 4.28 | below the threshold | 3.54 | below the threshold | 3.64 | below the threshold | below the threshold | QGLAERISVL [PRKD2, Q9BZL6] | pKd [21]: 5.06; pKd [22]: below the threshold; pKd [23]: 3.67; pKd [24]: 3.97; pKd [25]: below the threshold; pKd [26]: 3.71; pKd [27]: 4.72; pKd [28]: below the threshold; pKd [29]: below the threshold; pKd [30]: below the threshold
below the threshold | below the threshold | 3.86 | below the threshold | below the threshold | 4.24 | below the threshold | 4.16 | below the threshold | below the threshold | 5.19 | 4.18 | 3.82 | 3.9 | 4.13 | below the threshold | below the threshold | below the threshold | below the threshold | below the threshold | LPHPHSTTRV [NLGN2, Q8NFZ4] | pKd [21]: 3.84; pKd [22]: below the threshold; pKd [23]: 4.07; pKd [24]: below the threshold; pKd [25]: below the threshold; pKd [26]: 3.7; pKd [27]: below the threshold; pKd [28]: below the threshold; pKd [29]: below the threshold; pKd [30]: below the threshold
below the threshold | below the threshold | below the threshold | below the threshold | below the threshold | below the threshold | below the threshold | below the threshold | below the threshold | below the threshold | below the threshold | below the threshold | below the threshold | below the threshold | below the threshold | below the threshold | below the threshold | below the threshold | below the threshold | below the threshold | NHSSSPETTA [TRMT13, Q9NUP7] | pKd [21]: below the threshold; pKd [22]: below the threshold; pKd [23]: below the threshold; pKd [24]: below the threshold; pKd [25]: below the threshold; pKd [26]: below the threshold; pKd [27]: 3.88; pKd [28]: 4.02; pKd [29]: below the threshold; pKd [30]: below the threshold
